From patent publication US20250206841A1 (ADEPT THERAPEUTICS, published 2025) come the findings set out here.

To fix the notation:
T1: human Trop-2 expressed on cell surface (human, UniProt P09758 27-323)
T1 sequence (looked up): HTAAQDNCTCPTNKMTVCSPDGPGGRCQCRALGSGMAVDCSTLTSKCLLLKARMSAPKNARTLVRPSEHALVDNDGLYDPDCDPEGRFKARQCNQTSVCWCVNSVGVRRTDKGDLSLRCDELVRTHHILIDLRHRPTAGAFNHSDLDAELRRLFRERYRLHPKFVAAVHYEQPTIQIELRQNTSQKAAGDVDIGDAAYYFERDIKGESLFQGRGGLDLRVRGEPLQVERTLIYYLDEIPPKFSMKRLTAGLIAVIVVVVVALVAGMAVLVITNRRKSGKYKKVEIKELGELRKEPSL

T2: human Trop-2-His protein (human, UniProt P09758 27-274)
T2 construct: extracellular domain; Assay paragraphs say only 'Trop-2-His'; also called hTrop-2; Kactus Cat #TRP-HM121; not shown: His tag
T2 sequence (looked up): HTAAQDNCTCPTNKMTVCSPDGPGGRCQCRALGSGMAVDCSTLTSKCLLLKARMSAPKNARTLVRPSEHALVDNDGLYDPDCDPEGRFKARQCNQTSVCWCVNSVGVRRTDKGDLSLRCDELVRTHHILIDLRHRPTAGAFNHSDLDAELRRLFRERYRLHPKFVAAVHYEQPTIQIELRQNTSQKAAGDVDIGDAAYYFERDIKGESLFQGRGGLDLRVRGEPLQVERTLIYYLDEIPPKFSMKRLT

T3: cynomolgus Trop-2-His protein (cynomolgus, UniProt P09758 27-274 (human entry))
T3 construct: also called cynmolgus Trop-His; Kactus Cat #TRP-CM121; not shown: His tag
T3 chain: T2 sequence (looked up) with M36V, S67N, G139S, I204V

B1: 62E3 (antibody, V domains shown)
VH: QEQLKESGGGLVQPGGSLKLSCKASGFDFNEYGVSWVRQAPGKGLEWIAYIYPAFHNTYYATWVNGRFTISSHNAQNTLYLQLNTLTAADTATYFCARDAGTTDYNFNLWGPGTLVTVSS
VL: DVVMTQTASPVSAAVGGTVTIKCQASEDIESYLAWYQQKPGQPPKLLIYEASKLASGVSSRFSGSGYGTEFTLTISGVECADAATYYCQQALTIGNVDNPFGGGSEVVVK
notes: Rabbit-derived clone; LEM construct: VH + rabbit IgG CH1 + human IgG1 CH2-CH3
B2: 74F11/15F5 (antibody, human IgG1, V domains shown)
VH: B1 VH with E31N, V34M, T62N, H73D, L79V, Y80D, T85S, T102S
VL: B1 VL with A8P, S9A, P10S, S12E, S31R, A55P, N96Y
notes: LEM construct: VH + rabbit IgG CH1 + human IgG1 CH2-CH3
B3: 72F12 (antibody, V domains shown)
VH: B1 VH with E31N, T85S, T102S, T103V
VL: DVVMTQTPASVEVAVGGTVTIKCQASKNIDSNLAWYQQKPGQPPKQLIYAASTLASGVSSRFSGSGYGAEFTLTISGVECADAATYYCQQALTIGNVDNPFGGGSEVVVK
notes: as for B1
B4: 9D7 (antibody, V domains shown)
VH: QSLEESGGDLVQPGASLTLTCKASGFDLNNYSILWVRQAPGKGLEWIGCIYISGGSTYYANWAKGRFAISKTSSTTVTLQMTSLTAADTATYFCARDDGTASYYLNLWGPGTLVTVSS
VL: YDMTQTPASVSEPVGGTVTIKCQASEDIYKLLAWYQQKPGQPPKLLIYAASDLESGVPSRFKGRGSGTDYTLTISDLECADAATYYCQQAYTIGNIDNSFGGGTEVVVK
notes: as for B1
B5: 10A9 (antibody, V domains shown)
VH: B4 VH with S32A, I33M, S56T, Y59F, N61S, K64T, A101T
VL: B4 VL with E12A, P13A, K30S, A49G, D52N, R64S, D69E, A80D, S99A
notes: as for B1

Positions count from the first letter of the chain named. A value given as a limit tells only on which side of the number the result lay.

One experiment addresses T1, human Trop-2 expressed on cell surface. In words: cell-based or functional assay.
On to B1, for which the “Internalization %, MDA-MB-231, 0.25 µg/ml, 2 h” value was 41%; the “Internalization %, MDA-MB-231, 0.25 µg/ml, 4 h” value stood at 46%; the “Internalization %, MDA-MB-231, 0.5 µg/ml, 2 h” value worked out at 42%; the “Internalization %, MDA-MB-231, 0.5 µg/ml, 4 h” value stood at 45%. In addition, the “Internalization %, MDA-MB-231, 1 µg/ml, 2 h” value was determined as 43%; the “Internalization %, MDA-MB-231, 1 µg/ml, 4 h” value amounted to 49%; the “Internalization %, MDA-MB-231, 2 µg/ml, 2 h” value is 43%; the “Internalization %, MDA-MB-231, 2 µg/ml, 4 h” value came to 48%.

On to B2, for which the “Internalization %, MDA-MB-231, 0.25 µg/ml, 2 h” value turned out to be 42%; the “Internalization %, MDA-MB-231, 0.25 µg/ml, 4 h” value was 52%; the “Internalization %, MDA-MB-231, 0.5 µg/ml, 2 h” value stood at 37%; the “Internalization %, MDA-MB-231, 0.5 µg/ml, 4 h” value was found to be 45%. Further, the “Internalization %, MDA-MB-231, 1 µg/ml, 2 h” value was determined as 42%; the “Internalization %, MDA-MB-231, 1 µg/ml, 4 h” value is 48%; the “Internalization %, MDA-MB-231, 2 µg/ml, 2 h” value was found to be 39%; the “Internalization %, MDA-MB-231, 2 µg/ml, 4 h” value worked out at 46%.

With B3, the “Internalization %, MDA-MB-231, 0.25 µg/ml, 2 h” value stood at 38%; the “Internalization %, MDA-MB-231, 0.25 µg/ml, 4 h” value was determined as 48%; the “Internalization %, MDA-MB-231, 0.5 µg/ml, 2 h” value came out at 42%; the “Internalization %, MDA-MB-231, 0.5 µg/ml, 4 h” value worked out at 48%. Also, the “Internalization %, MDA-MB-231, 1 µg/ml, 2 h” value turned out to be 35%; the “Internalization %, MDA-MB-231, 1 µg/ml, 4 h” value was determined as 45%; the “Internalization %, MDA-MB-231, 2 µg/ml, 2 h” value amounted to 37%; the “Internalization %, MDA-MB-231, 2 µg/ml, 4 h” value is 45%.

In the case of B4, the “Internalization %, MDA-MB-231, 0.25 µg/ml, 2 h” value is 42%; the “Internalization %, MDA-MB-231, 0.25 µg/ml, 4 h” value is 52%; the “Internalization %, MDA-MB-231, 0.5 µg/ml, 2 h” value stood at 47%; the “Internalization %, MDA-MB-231, 0.5 µg/ml, 4 h” value turned out to be 55%. Besides, the “Internalization %, MDA-MB-231, 1 µg/ml, 2 h” value was 43%; the “Internalization %, MDA-MB-231, 1 µg/ml, 4 h” value is 54%; the “Internalization %, MDA-MB-231, 2 µg/ml, 2 h” value was 42%; the “Internalization %, MDA-MB-231, 2 µg/ml, 4 h” value is 49%.

For the molecule B5, the “Internalization %, MDA-MB-231, 0.25 µg/ml, 2 h” value came out at 54%; the “Internalization %, MDA-MB-231, 0.25 µg/ml, 4 h” value stood at 57%; the “Internalization %, MDA-MB-231, 0.5 µg/ml, 2 h” value came out at 47%; the “Internalization %, MDA-MB-231, 0.5 µg/ml, 4 h” value is 53%. Also, the “Internalization %, MDA-MB-231, 1 µg/ml, 2 h” value worked out at 40%; the “Internalization %, MDA-MB-231, 1 µg/ml, 4 h” value is 55%; the “Internalization %, MDA-MB-231, 2 µg/ml, 2 h” value stood at 38%; the “Internalization %, MDA-MB-231, 2 µg/ml, 4 h” value came to 49%.

For a further experiment the target is unchanged. In words: flow cytometry, MCF-7 cells. Here is the method:
(§1) Cells were then resuspended in FACS buffer (1×DPBS/1% FBS) at 10⁶/ml concentration. One hundred microliter (100 μl) of cells were aliquoted into a single well in 96 well plates. The antibodies to be tested were serially diluted at 1:3 fold starting at 15 μg/mL and were then added into each well. The antibodies were mixed with cells and the mixtures were incubated on ice for 1 hour. After washing with FACS buffer, one hundred microliter (100 μl) of 1:400 diluted PE-conjugated anti-human Fc secondary antibody (Jackson Immuno Research) was added into each well and incubated for 30 minutes on ice. After washing with FACS buffer, stained cells were resuspended at diluted 7-ADD (Biolegend, used at 1:100 dilution) and analyzed on Guava 11HT or 5HT (Luminex). Data was analyzed using Flowjo software. EC₅₀ values were calculated using GraphPad Prism. Sacitnzurnab govitecan was used as positive control. Anti-HEL.hIgG1 was used as isotype negative control. Similar assay was performed using MCF-7 cells (known to express human Trop-2).
Consider B1, for which a half-maximal response (EC50) required 0.7 nM.

For the molecule B2, the EC50 stood at 0.9 nM.

With B3, the EC50 amounted to 0.7 nM.

Molecule B4 came in with an EC50 of 1.2 nM. Compared with the last molecule, the EC50 is about 1.7-fold higher.

For B5, a half-maximal effect (EC50) was put at 1.4 nM.

The next experiment shares this target. In words: flow cytometry, MDA-MB-231-GFP cells. Here is the method:
as §1
(In general: A flow cytometer gives signals particle by particle.)
B1 registered an EC50 of 0.01 nM. In other words, the picomolar range.

For the molecule B2, the EC50 amounted to 0.02 nM.

The molecule B3 showed an EC50 of 0.01 nM. Compared with the last molecule, the EC50 is about 2-fold lower.

As for B4, the concentration for a half-maximal effect (EC50) turned out to be 0.03 nM. This EC50 lies about 3-fold higher than the previous one.

On to B5, for which the EC50 stood at 0.04 nM.

Another experiment deals with T2, human Trop-2-His protein. In words: BLI (Gator Plus), purified Ab on HFC probe. Here is the method:
The affinity of the binding of the exemplary anti-Trop-2 antibodies of the present disclosure were determined. Assay was performed using Gator Plus according to the protocol recommended by Gator Bio Inc.. Briefly, human Trop-2-His (Kactus) was 1:4 fold serially diluted starting at 1 μg/ml. After three times of regeneration and neutralization of HFC probe, 1 μg/ml of antibody to be tested in Q buffer was immobilized onto HFC probe. […] The association and dissociation of human Trop-2-His antigen from antibody was measured on BLI machine Gator Plus. Affinity was calculated using Gator Bio analysis software. Blank control was used for reference subtraction. Sacituzumab govitecan was used as positive control.
B1: the Kd amounted to 0.59 nM, the koff worked out at 0.000429 s⁻¹ and the kon was 726000 M⁻¹ s⁻¹.

For the molecule B2, the Kd was determined as 0.01 nM, the koff stood at 9e-06 s⁻¹ and the kon worked out at 707000 M⁻¹ s⁻¹.

With B3, the Kd was found to be 0.63 nM, the koff was 0.000541 s⁻¹ and the kon is 865000 M⁻¹ s⁻¹.

In the case of B4, the Kd was under 0.002 nM, the koff is under 1e-06 s⁻¹ and the kon was determined as 432000 M⁻¹ s⁻¹.

Consider B5, for which the Kd is 0.18 nM, the koff was determined as 8.2e-05 s⁻¹ and the kon was determined as 448000 M⁻¹ s⁻¹.

The target in another experiment is T2, human Trop-2-His protein. In words: BLI (Gator Prime), LEM supernatant Ab on HFC probe. In outline:
(§2)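 Antibodies from LEM transfection supernatants were diluted 1:1 in K buffer and captured on HFC probes. Association and dissociation of human or cynomolgus Trop-2-His were then followed by BLI, with blank reference subtraction and affinity from kinetic fitting. Sacituzumab govitecan at 1 μg/ml served as positive control.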
Molecule B1 had a Kd of 0.623 nM, a koff of 0.00038 s⁻¹ and a kon of 607000 M⁻¹ s⁻¹.

The molecule B2 had a Kd of 0.323 nM, a koff of 0.00017 s⁻¹ and a kon of 526000 M⁻¹ s⁻¹.

As to B3, the Kd was 0.574 nM, the koff came out at 0.00038 s⁻¹ and the kon stood at 666000 M⁻¹ s⁻¹.

For B4, binding was put at a Kd of 0.113 nM, the koff was determined as 3.9e-05 s⁻¹ and the kon amounted to 342000 M⁻¹ s⁻¹.

In the case of B5, the Kd came out at 0.142 nM, the koff came to 5.3e-05 s⁻¹ and the kon came to 372000 M⁻¹ s⁻¹.

A further experiment has as its target T3, cynomolgus Trop-2-His protein. In words: BLI (Gator Prime), LEM supernatant Ab on HFC probe. In outline:
as §2
For B1, the dissociation constant (Kd) was 0.685 nM, the koff was 0.00045 s⁻¹ and the kon was 651000 M⁻¹ s⁻¹.

B2 had an equilibrium dissociation constant (Kd) of 0.264 nM, a koff of 0.00017 s⁻¹ and a kon of 758000 M⁻¹ s⁻¹.

The molecule B3 gave a Kd of 0.526 nM, a dissociation rate constant (koff) of 0.00047 s⁻¹ and an on-rate constant (kon) of 898000 M⁻¹ s⁻¹.

Consider B4, for which the Kd worked out at 0.117 nM, the koff worked out at 3.9e-05 s⁻¹ and the on-rate constant (kon) stood at 528000 M⁻¹ s⁻¹.

Consider B5, for which binding was characterised by a dissociation constant (Kd) of 0.108 nM, the koff is 5.3e-05 s⁻¹ and the kon turned out to be 569000 M⁻¹ s⁻¹.

What is called EC50 is the concentration at which the effect is half-maximal. A higher EC50 goes with weaker potency. For orientation: Kd means the constant that tells how readily two partners part at equilibrium. What is called koff is the rate constant with which the complex falls apart. Broadly, the kon is a measure of how fast the partners come together.
